Assay results reported in patent publication US20210087281A1 (AGOMAB THERAPEUTICS, published 2021).
Blank lines part the entries; values can stand above or below the binder they belong to.

How the values were obtained:
[1] = molecular target: T1, native mouse MET on living cells (mouse, UniProt P16056 25-1379); test: flow cytometry, MLP29 cells
T1 construct: whole, on cells; also called Mouse cells (MLP29); mouse epithelial cells expressing MET
Method in brief: (§1)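 Detection used a phycoerythrin-labelled anti-human IgG1 secondary and flow cytometry, measuring binding of chimeric antibodies to native MET on live A549 (human) or MLP29 (mouse) cells. Positive controls were a mouse anti-human MET and a goat anti-mouse MET antibody, each with a PE-labelled secondary.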

[2] = molecular target: T2, native human MET on living cells (human, UniProt P08581 25-1390); test: cell-based or functional assay
T2 sequence (P08581 25-1390): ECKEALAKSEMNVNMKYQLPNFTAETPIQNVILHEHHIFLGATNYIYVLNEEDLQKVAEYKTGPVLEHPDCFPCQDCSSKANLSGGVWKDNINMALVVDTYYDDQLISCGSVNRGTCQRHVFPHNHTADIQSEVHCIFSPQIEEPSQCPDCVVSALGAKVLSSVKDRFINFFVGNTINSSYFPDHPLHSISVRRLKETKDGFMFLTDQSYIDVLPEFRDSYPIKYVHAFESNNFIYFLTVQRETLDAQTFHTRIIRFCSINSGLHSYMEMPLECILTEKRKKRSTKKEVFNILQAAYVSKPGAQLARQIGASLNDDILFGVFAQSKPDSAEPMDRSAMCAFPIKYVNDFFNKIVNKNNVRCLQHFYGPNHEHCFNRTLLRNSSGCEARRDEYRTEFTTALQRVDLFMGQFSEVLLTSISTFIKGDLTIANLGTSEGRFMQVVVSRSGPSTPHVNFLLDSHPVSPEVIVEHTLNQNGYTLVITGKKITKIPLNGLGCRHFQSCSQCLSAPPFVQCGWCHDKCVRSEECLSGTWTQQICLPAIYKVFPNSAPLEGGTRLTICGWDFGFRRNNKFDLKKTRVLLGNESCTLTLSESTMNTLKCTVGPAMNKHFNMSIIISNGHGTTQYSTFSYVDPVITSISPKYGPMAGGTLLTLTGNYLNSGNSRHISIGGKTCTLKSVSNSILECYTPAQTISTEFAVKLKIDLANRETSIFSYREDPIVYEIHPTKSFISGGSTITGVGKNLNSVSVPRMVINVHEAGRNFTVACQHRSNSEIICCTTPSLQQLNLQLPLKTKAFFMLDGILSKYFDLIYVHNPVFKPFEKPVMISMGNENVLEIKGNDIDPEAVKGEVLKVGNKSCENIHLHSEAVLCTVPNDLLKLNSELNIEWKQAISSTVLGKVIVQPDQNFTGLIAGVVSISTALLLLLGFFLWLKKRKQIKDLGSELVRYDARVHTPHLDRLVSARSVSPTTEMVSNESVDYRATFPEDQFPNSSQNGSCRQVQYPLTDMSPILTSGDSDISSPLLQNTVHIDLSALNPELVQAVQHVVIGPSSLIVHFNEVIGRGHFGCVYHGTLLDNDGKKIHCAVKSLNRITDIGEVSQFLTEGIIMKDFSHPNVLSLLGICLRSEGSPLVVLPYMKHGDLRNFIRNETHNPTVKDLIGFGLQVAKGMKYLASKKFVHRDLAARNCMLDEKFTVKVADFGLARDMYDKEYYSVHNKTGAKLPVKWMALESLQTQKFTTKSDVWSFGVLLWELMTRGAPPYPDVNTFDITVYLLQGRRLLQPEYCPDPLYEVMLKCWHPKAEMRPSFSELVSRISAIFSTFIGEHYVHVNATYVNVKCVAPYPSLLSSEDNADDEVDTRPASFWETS

[3] = molecular target: T1, native mouse MET on living cells; test: cell-based or functional assay
[4] = molecular target: T3, human MET ECD (human, UniProt P08581 25-932); test: ELISA, MET ECD in solid phase, mAb 0-20 nM
T3 construct: range 1-932; recombinant ECD made by the applicants; the stated range begins at residue 1, so it includes the signal peptide of the entry; also called hMET; hMET ECD
T3 sequence (P08581 25-932 limits assumed, form in doubt): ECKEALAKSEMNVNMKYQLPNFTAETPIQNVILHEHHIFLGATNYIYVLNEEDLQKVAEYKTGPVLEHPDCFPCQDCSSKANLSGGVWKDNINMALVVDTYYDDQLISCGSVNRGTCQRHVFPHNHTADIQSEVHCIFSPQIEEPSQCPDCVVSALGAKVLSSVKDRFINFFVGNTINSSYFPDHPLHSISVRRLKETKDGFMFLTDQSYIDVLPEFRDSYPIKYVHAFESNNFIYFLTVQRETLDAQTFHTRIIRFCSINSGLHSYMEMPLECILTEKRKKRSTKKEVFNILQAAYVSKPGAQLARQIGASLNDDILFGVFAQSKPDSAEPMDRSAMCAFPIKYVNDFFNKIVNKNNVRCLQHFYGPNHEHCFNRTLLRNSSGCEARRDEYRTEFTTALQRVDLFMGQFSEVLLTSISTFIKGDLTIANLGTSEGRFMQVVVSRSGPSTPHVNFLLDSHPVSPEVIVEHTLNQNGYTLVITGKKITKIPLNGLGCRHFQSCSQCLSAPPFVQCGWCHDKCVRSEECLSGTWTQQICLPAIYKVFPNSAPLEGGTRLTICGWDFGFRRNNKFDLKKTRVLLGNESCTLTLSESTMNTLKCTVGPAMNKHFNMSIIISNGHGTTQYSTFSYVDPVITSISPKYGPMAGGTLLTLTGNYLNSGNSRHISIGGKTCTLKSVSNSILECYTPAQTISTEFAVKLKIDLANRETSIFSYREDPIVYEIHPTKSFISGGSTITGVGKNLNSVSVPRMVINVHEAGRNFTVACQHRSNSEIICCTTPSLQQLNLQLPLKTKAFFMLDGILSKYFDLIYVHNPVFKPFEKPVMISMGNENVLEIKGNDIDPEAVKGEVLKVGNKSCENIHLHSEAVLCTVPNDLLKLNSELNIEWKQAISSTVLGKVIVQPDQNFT
Method in brief: (§2)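 Solid-phase ELISA; analyte = protein A-purified chimeric llama/human IgG1 from transient mammalian transfection, titrated in solution onto immobilized MET ECD.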

[5] = molecular target: T4, mouse MET ECD (mouse, UniProt P16056 25-931); test: ELISA, MET ECD in solid phase, mAb 0-20 nM
T4 construct: range 1-931; recombinant ECD made by the applicants; the stated range begins at residue 1; also called mMET; mMET ECD
Method in brief: as §2

[6] = molecular target: T2, native human MET on living cells; test: cell-based or functional assay; remark: listed apart in the source
[7] = molecular target: T1, native mouse MET on living cells; test: cell-based or functional assay; remark: listed apart in the source
[8] = molecular target: T5, mouse MET-Fc (R&D Systems) (mouse, UniProt P16056 25-929, limits assumed); test: competition ELISA, mMET-Fc in solid phase, competitor 0.3 nM biotinylated mHGF
T5 construct: bought chimeric protein; also called mMET; not shown: Fc part
Method in brief: (§3)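 An ELISA format measured how well mAbs (0-120 nM) displaced N-terminus-biotinylated HGF from plate-bound receptor. Results are given as the concentration producing 50% competition and as IMAX, the saturating maximum percentage.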

[9] = molecular target: T2, native human MET on living cells; test: cell-based or functional assay; remark: listed apart in the source
[10] = molecular target: T1, native mouse MET on living cells; test: cell-based or functional assay; remark: listed apart in the source
[11] = molecular target: human MET ECD mutant A (mutations 1, 2, 3) (human) (UniProt P08581); test: ELISA, MET ECD in solid phase, mAb 0-50 nM
[12] = molecular target: human MET ECD mutant H (mutations 2, 4) (human) (UniProt P08581); test: ELISA, MET ECD in solid phase, mAb 0-50 nM
[13] = molecular target: human MET ECD mutant E (mutations 2, 3, 4) (human) (UniProt P08581); test: ELISA, MET ECD in solid phase, mAb 0-50 nM
[14] = molecular target: human MET ECD mutant D (mutations 1, 2) (human) (UniProt P08581); test: ELISA, MET ECD in solid phase, mAb 0-50 nM
[15] = molecular target: T3, human MET ECD; test: ELISA, MET ECD in solid phase, mAb 0-50 nM
Protocol: Using human MET as a template, we mutagenized each of these residues in different permutations, generating a series of MET mutants that are fully human except for specific residues, which are llama. Next, we tested the affinity of selected SEMA-binding mAbs (71D6, 71C3, 71D4, 71A3, 71G2) and PSI-binding mAbs (76H10 and 71G3) for these MET mutants by ELISA. To this end, the various MET proteins were immobilized in solid phase (100 ng/well in a 96-well plate) and then exposed to increasing concentrations of antibodies (0-50 nM) solution. […] Wild-type human MET was used as positive control.
TABLE 18 The epitopes of MET responsible for agonistic antibody binding represent residues conserved among H. sapiens, M. musculus, R. norvegicus, M. fascicularis but not among the same species and L. glama. The relevance of residues conserved among human, mouse, rat, cynomolgus monkey but not llama MET for binding to agonistic mAbs was tested by ELISA. Wild-type (WT) or mutant (MT) human MET ECD was immobilized in solid phase and exposed to increasing concentrations of mAbs in solution. […] All binding values were normalized to the WT protein and are expressed as % binding (EMAX) compared to WT MET.

[16] = molecular target: T6, human MET-Fc (R&D Systems) (human, UniProt P08581 25-932); test: competition ELISA, hMET-Fc in solid phase, competitor 0.3 nM biotinylated hHGF
T6 construct: extracellular domain; bought chimeric protein; also called hMET; not shown: Fc portion of human IgG1
T6 sequence (P08581 25-932): as the sequence (P08581 25-932 limits assumed, form in doubt) above
Method in brief: as §3

[17] = molecular target: T2, native human MET on living cells; test: flow cytometry, A549 cells
Method in brief: as §1

[18] = molecular target: T2, native human MET on living cells; test: cell-based or functional assay; remark: listed apart in the source
[19] = molecular target: T1, native mouse MET on living cells; test: cell-based or functional assay; remark: listed apart in the source

EC50 [1]: 0.585 nM
EMAX [1]: 115 % relative to control
scatter score 0-4, HPAF-II, 0.001 nM [2]: 0 score
scatter score 0-4, HPAF-II, 0.004 nM [2]: 0 score
scatter score 0-4, HPAF-II, 0.012 nM [2]: 0 score
scatter score 0-4, HPAF-II, 0.037 nM [2]: 0 score
scatter score 0-4, HPAF-II, 0.111 nM [2]: 1 score
scatter score 0-4, HPAF-II, 0.333 nM [2]: 2 score
scatter score 0-4, HPAF-II, 1.000 nM [2]: 3 score
scatter score 0-4, HPAF-II, 3.000 nM [2]: 4 score
scatter score 0-4, HPAF-II, 9.000 nM [2]: 4 score
scatter score 0-4, MLP29, 0.001 nM [3]: 0 score
scatter score 0-4, MLP29, 0.004 nM [3]: 0 score
scatter score 0-4, MLP29, 0.012 nM [3]: 0 score
scatter score 0-4, MLP29, 0.037 nM [3]: 0 score
scatter score 0-4, MLP29, 0.111 nM [3]: 1 score
scatter score 0-4, MLP29, 0.333 nM [3]: 2 score
scatter score 0-4, MLP29, 1.000 nM [3]: 3 score
scatter score 0-4, MLP29, 3.000 nM [3]: 4 score
scatter score 0-4, MLP29, 9.000 nM [3]: 4 score
EC50 [4]: 0.203 nM
EMAX (OD450) [4]: 2.46 AU
EC50 [5]: 0.293 nM
EMAX (OD450) [5]: 2.24 AU
IC50 [8]: 1.56 nM
IMAX [8]: 89.2%
branches per spheroid, LOC cells, 0.5 nM [9]: 8.7 branches
branches per spheroid, LOC cells, 2.5 nM [9]: 12.7 branches
branches per spheroid, LOC cells, 12.5 nM [9]: 15.7 branches
branches per spheroid, MLP29 cells, 0.5 nM [10]: 11.7 branches
branches per spheroid, MLP29 cells, 2.5 nM [10]: 15.7 branches
branches per spheroid, MLP29 cells, 12.5 nM [10]: 24.7 branches
% binding (EMAX) compared to WT MET [11]: 99.8 % WT MET ECD
% binding (EMAX) compared to WT MET [12]: 61.6 % WT MET ECD
% binding (EMAX) compared to WT MET [13]: 59.6 % WT MET ECD
% binding (EMAX) compared to WT MET [14]: 102 % WT MET ECD
% binding (EMAX) compared to WT MET [15]: 100 % WT MET ECD
IC50 [16]: 1.42 nM
IMAX [16]: 93.6%
EC50 [17]: 0.572 nM
EMAX [17]: 106 % relative to control
phospho-MET ELISA EC50, A549 cells [18]: 0.35 nM
phospho-MET ELISA EMAX (% HGF activity), A549 cells [18]: 86.2%
phospho-MET ELISA EC50, MLP29 cells [19]: 0.33 nM
phospho-MET ELISA EMAX (% HGF activity), MLP29 cells [19]: 98.8%
B1: 71C3 chimeric llama-human IgG1 mAb (antibody, V domains shown)
VH: QLQLVESGGGLVQPGGSLRLSCAASGFTFSSHAMSWVRQAPGKGLEWVSAINSGGGSTSYADSVKGRFTISRDNAKNTLYLQMNSLKPEDTAVYYCAKELRFDLARYTDYEAWDYWGQGTQVTVSS
VL: SYELTQPSALSVTLGQTAKITCQGGSLGSSYAHWYQQKPGQAPVLVIYDDDSRPSGIPERFSGSSSGGTATLTISGAQAEDEGDYYCQSADSSGNAAVFGGGTHLTVL
notes: llama VH on human IgG1 CH1-CH2-CH3, llama VL on human lambda CL
protection from staurosporine, viability EC50, MCF10A cells [6]: 31.9 nM
protection from staurosporine, viability EMAX, MCF10A cells [6]: 50.2%
protection from staurosporine, viability EC50, MLP29 cells [7]: 31 nM
protection from staurosporine, viability EMAX, MLP29 cells [7]: 51.3%

EC50 [1]: 0.498 nM
EMAX [1]: 94.8 % relative to control
scatter score 0-4, HPAF-II, 0.001 nM [2]: 0 score
scatter score 0-4, HPAF-II, 0.004 nM [2]: 0 score
scatter score 0-4, HPAF-II, 0.012 nM [2]: 0 score
scatter score 0-4, HPAF-II, 0.037 nM [2]: 0 score
scatter score 0-4, HPAF-II, 0.111 nM [2]: 0 score
scatter score 0-4, HPAF-II, 0.333 nM [2]: 0 score
scatter score 0-4, HPAF-II, 1.000 nM [2]: 1 score
scatter score 0-4, HPAF-II, 3.000 nM [2]: 2 score
scatter score 0-4, HPAF-II, 9.000 nM [2]: 2 score
scatter score 0-4, MLP29, 0.001 nM [3]: 0 score
scatter score 0-4, MLP29, 0.004 nM [3]: 0 score
scatter score 0-4, MLP29, 0.012 nM [3]: 0 score
scatter score 0-4, MLP29, 0.037 nM [3]: 0 score
scatter score 0-4, MLP29, 0.111 nM [3]: 0 score
scatter score 0-4, MLP29, 0.333 nM [3]: 0 score
scatter score 0-4, MLP29, 1.000 nM [3]: 1 score
scatter score 0-4, MLP29, 3.000 nM [3]: 2 score
scatter score 0-4, MLP29, 9.000 nM [3]: 2 score
EC50 [4]: 0.207 nM
EMAX (OD450) [4]: 1.43 AU
EC50 [5]: 0.274 nM
EMAX (OD450) [5]: 1.17 AU
IC50 [8]: 0.4 nM
IMAX [8]: 91.3%
branches per spheroid, LOC cells, 0.5 nM [9]: 9 branches
branches per spheroid, LOC cells, 2.5 nM [9]: 15.7 branches
branches per spheroid, LOC cells, 12.5 nM [9]: 18.7 branches
branches per spheroid, MLP29 cells, 0.5 nM [10]: 16 branches
branches per spheroid, MLP29 cells, 2.5 nM [10]: 14.7 branches
branches per spheroid, MLP29 cells, 12.5 nM [10]: 21.7 branches
% binding (EMAX) compared to WT MET [11]: 114 % WT MET ECD
% binding (EMAX) compared to WT MET [12]: 58.7 % WT MET ECD
% binding (EMAX) compared to WT MET [13]: 57.2 % WT MET ECD
% binding (EMAX) compared to WT MET [14]: 120 % WT MET ECD
% binding (EMAX) compared to WT MET [15]: 100 % WT MET ECD
IC50 [16]: 0.34 nM
IMAX [16]: 95.6%
EC50 [17]: 0.371 nM
EMAX [17]: 107 % relative to control
phospho-MET ELISA EC50, A549 cells [18]: 0.59 nM
phospho-MET ELISA EMAX (% HGF activity), A549 cells [18]: 84.6%
phospho-MET ELISA EC50, MLP29 cells [19]: 0.51 nM
phospho-MET ELISA EMAX (% HGF activity), MLP29 cells [19]: 95.3%
B2: 71D4 chimeric llama-human IgG1 mAb (antibody, V domains shown)
VH: ELQLVESGGGLVQPGGSLRLSCAASGFTFSGYGMSWVRQAPGKGLEWVSDINSGGGSTSYADSVKGRFTISRDNAKNTLYLQMNSLKPEDTAVYYCAKDMRLYLARYNDYEAWDYWGQGTQVTVSS
VL: SSALTQPSALSVTLGQTAKITCQGGSLGSSYAHWYQQKPGQAPVLVIYDDDSRPSGIPERFSGSSSGGTATLTISGAQAEDEGDYYCQSADSSGNAAVFGGGTHLTVL
notes: as for B1
protection from staurosporine, viability EC50, MCF10A cells [6]: 30.2 nM
protection from staurosporine, viability EMAX, MCF10A cells [6]: 51.7%
protection from staurosporine, viability EC50, MLP29 cells [7]: 29.8 nM
protection from staurosporine, viability EMAX, MLP29 cells [7]: 52.1%
